Experiments:
[1] = target: T1, Human PD-1-His tag protein (Sino Biological Inc. Cat#10377-H08H-100) (human, UniProt Q15116 25-167); assay: ELISA, antibody coated at 1 ug/ml, PD-1-His titrated, detected with anti-His-HRP; antibody coated on the plate, human PD-1-His titrated
T1 construct: Bought protein; not shown: His tag
Procedure: (§1) The PD-1 antibody sample was diluted in PBS to 1 ug/ml and was coated in an ELISA plate (Costar, Cat#3590, high binding) 100 ul/well, 4° C. overnight. The plate was decanted and blocking solution (eBioscience, ELISA/ELISPOT Diluent, Cat#00-4202-55) was added 200 ul/well. After 1 hour incubation at room temperature, the plate was washed with PBST three times. […] The plate was incubated 1 hour at room temperature and then washed four times with PBST. Anti-His-HRP (Genscript Cat#A00612) at 1:2000 dilution was added to the plate 100 ul/well. The plate was incubated 1 hour at room temperature followed by washing with PBST four times. The TMB substrate solution was added 100 ul/well. Let the color develop for 15 minutes and add 50 ul/well 1M H2SO4 to terminate the reaction. Absorbance at 450 nm was determined in FlexStation 3 ELISA reader.

[2] = target: T2, Cyno PD-1-Fc tag (Sino Biological Inc. Cat#90311-CO2H) (cynomolgus monkey, UniProt B0LAJ3 25-170); assay: ELISA, Cyno PD-1-Fc coated at 2 ug/ml, antibody titrated, detected with anti-human Ig kappa-HRP
T2 construct: Bought Fc fusion; also called PD-1 of cynomolgus monkey; Cynomolgus monkey PD-1
Procedure: To determine binding to PD-1 of cynomolgus monkey, Cyno PD-1—Fc tag (Sino Biological Inc. Cat#90311-CO2H) was diluted in PBS to 2 ug/ml, and 100 ul/well was used to coat an ELISA plate (Costar, Cat#3590, high binding), 4° C. overnight. The plate was decanted and blocking solution (eBioscience, ELISA/ELISPOT Diluent, Cat#00-4202-55) was added, 200 ul/well. After 1 hour incubation at room temperature, the plate was washed with PBST three times. The testing PD-1 antibody was diluted in blocking buffer to 0, 0.001, 0.01, 0.1, 1.10 ug/ml and added to the plate, 100 ul/well. The plate was incubated 1 hour at room temperature and then washed four times with PBST. Anti-Hu IgG-HRP (goat-anti-human Ig kappa-HRP, Millipore, Cat# AP502P) at 1:4000 dilution was added to the plate, 100 ul/well. The plate was incubated 1 hour at room temperature followed by washing with PBST four times. The TMB substrate solution was added 100 ul/well. The color developed for 15 minutes and 50 ul/well of 1M H2SO4 was added to terminate the reaction. Absorbance at 450 nm was determined in FlexStation 3 ELISA reader.

[3] = target: T3, Human PD-1 (captured on an anti-His IgG Biacore chip) (human, UniProt Q15116 25-167); assay: SPR (Biacore), human PD-1 captured on anti-His IgG chip, SSI-361 injected at 3.125-50 nM, 1:1 model
T3 construct: It may be the same Sino Biological PD-1-His protein as m3; also called PD-1 antigen; not shown: His tag implied by capture on anti-His IgG
Procedure: Flow cells of a Series S CMS sensor chip (GE Healthcare Life Sciences) were activated with freshly mixed 50 mmol/L NHS and 200 mmol/L EDC for 360 seconds (10 μL/min). Then, anti-His IgGs, in 10 mmol/L NaAC (pH 5.0) was injected onto the activated flow cell (10 μL/min) for 300 seconds (10 μL/min) with HBS-EP+(10 mM HEPES, 150 mM NaCl, 3 mM EDTA and 0.05% P20, pH 7.4) as the running buffer. The remaining active coupling sites were blocked with a 420 second injection of 1 mol/L ethanolamine (10 μL/min). This procedure was repeated for 2 times to immobilized protein on 2 flow cells individually. Low flow rate overnight was maintained for the equilibrium of the immobilized proteins. Human PD-1 was captured on a flow cell 2 (10 μL/min). […] Flow cell 1 without captured antigen was used as reference flow cell. To remove the tested antibody and antigen from the surface, 10 mM glycine-HCl pH 1.5 was injected for 60s (10 μL/min, flow cell 1-2). The above procedures were repeated for each concentration of serially diluted tested antibody. The KD value (Table 1) was evaluated using Biacore X100 evaluation software 2.0 with 1:1 interaction binding model. Flow cell 1 was used as reference flow cell for data subtraction.

[4] = target: T1, Human PD-1-His tag protein (Sino …); assay: ELISA, antibody coated at 1 ug/ml, human PD-1-His titrated (the concentration axis is that of PD-1-His), detected with anti-His-HRP
Procedure: as §1

[5] = target: T4, rhesus monkey PD-1-His (Sino Biological Inc. Cat#90305-KO8H-100) (rhesus monkey, UniProt B0LAJ2 25-170); assay: ELISA, antibody coated at 1 ug/ml, PD-1-His titrated, detected with anti-His-HRP
T4 construct: Bought protein; also called Rehsus monkey PD-1
Procedure: as §1

[6] = target: T4, rhesus monkey PD-1-His (Sino Biological …); assay: ELISA, antibody coated at 1 ug/ml, rhesus monkey PD-1-His titrated (the concentration axis is that of PD-1-His), detected with anti-His-HRP
Procedure: as §1

T3 sequence (Q15116 25-167): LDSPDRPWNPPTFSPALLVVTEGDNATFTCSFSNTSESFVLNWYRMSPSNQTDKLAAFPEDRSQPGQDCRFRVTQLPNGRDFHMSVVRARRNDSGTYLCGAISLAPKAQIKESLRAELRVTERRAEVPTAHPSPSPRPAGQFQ
T2 sequence (B0LAJ3 entry or part of it limits assumed): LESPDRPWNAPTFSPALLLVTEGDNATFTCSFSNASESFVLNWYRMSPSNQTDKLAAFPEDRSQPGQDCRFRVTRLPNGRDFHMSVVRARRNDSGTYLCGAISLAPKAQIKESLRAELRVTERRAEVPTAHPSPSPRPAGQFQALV
T4 sequence (B0LAJ2 entry or part of it limits assumed): as the sequence (B0LAJ3 entry or part of it limits assumed) above, with A10P, Q67R, R75Q counted along it
T1 sequence (Q15116 25-167 limits assumed): as the sequence (Q15116 25-167) above

- EC50 [1]: 0.33 nM
- EC50 [2]: 0.08 nM
- EC50 (read off the curve) [2]: ~0.01 µg/mL
- Kd [3]: 5.07 nM
- koff [3]: 0.00117 s⁻¹
- kon [3]: 230000 M⁻¹ s⁻¹
- EC50 (read off the curve) [4]: ~0.03 µg/mL
- EC50 [5]: 0.39 nM
- EC50 (read off the curve) [6]: ~0.05 µg/mL
B1: SSI-361 (humanized SHB-617 in human IgG4 S228P/kappa) (antibody, V domains shown)
VH: QVTLKESGPALVKPTQTLTLTCTFSGFSLSTSGTCVSWIRQPPGKALEWLATICWEDSKGYNPSLKSRLTISKDTSKNQAVLTMTNMDPVDTATYYCARREDSGYFWFPYWGQGTLVTVSS
VL: NIQMTQSPSSLSASVGDRVTITCKAGQNVNNYLAWYQQKPGKAPKVLIFNANSLQTGVPSRFSGSGSGTDFTLTISSLQPEDFATYYCQQYNSWTTFGGGTKVEIKR
notes: Full human IgG4 (hinge S228P, EU numbering)/kappa, expressed in HEK293 or CHO cells; also called PD-1 Ab01

— patent US20180346569A1 (LYVGEN BIOPHARMA, published 2018)
